In the supplement of paper PMC9732359:
± gives the uncertainty stated by the source.

Test: protein stability index of a GFP-peptide fusion (yeast GPS) (PSI 1-4); higher = more stable; sorted into four equal gates, so the index is relative within each strain
Method in brief: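 Plasmids in a pooled yeast library fused tiled 17-residue yeast protein peptides downstream of GFP and also expressed Cherry. Mid-log cultures grown without leucine were sorted into four equal gates by GFP/Cherry fluorescence ratio. Each gate's plasmids were PCR-amplified and Illumina-sequenced, and reads were matched to strains by barcodes. The protein stability index is derived by multiplying each gate's read frequency by its gate number and summing the results.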

Sequence | protein stability index (doa10∆) | protein stability index (pdr5∆) | protein stability index (san1∆) | protein stability index (ubr1∆)
SMINSVSPTNVMGTPLT [PGD1] | 2.8 ± 0.053 | 2.94 ± 0.059 | 2.73 ± 0.042 | 2.84 ± 0.047
TLENTLKAAFVAIGNTY [RPS2] | 1.86 ± 0.16 | 1.9 ± 0.11 | 1.72 ± 0.14 | 1.94 ± 0.091
QTTEGYDPKDALKNACN [RPB11] | 3.28 ± 0.26 | 3.28 ± 0.14 | 3.26 ± 0.082 | 3.35 ± 0.15
QALEKIGIVEISPKGGR [RPS19A] | 2.46 ± 0.15 | 2.74 ± 0.18 | 2.2 ± 0.13 | 2.56 ± 0.15
GSGLLKLSEIILNINNS [SWI1] | 2.69 ± 0.089 | 2.69 ± 0.081 | 2.4 ± 0.098 | 2.85 ± 0.081
PINLENNDGSYGLFLKY [SRB8] | 3.07 ± 0.11 | 2.34 ± 0.075 | 2.18 ± 0.14 | 1.81 ± 0.069
YTDRDQDEVNKGPAIDE [NNF1] | 2.12 ± 0.092 | 2.01 ± 0.085 | 1.89 ± 0.13 | 2.13 ± 0.14
VKLWEEDPDQEECSGRR [YGL100W/SEH1] | 3.18 ± 0.084 | 3.08 ± 0.081 | 3.37 ± 0.04 | 3.37 ± 0.055
KFPATNVTTILDEIFSG [ECM29] | 2.54 ± 0.078 | 2.93 ± 0.066 | 2.28 ± 0.06 | 2.7 ± 0.063
HTLMSFAGEAGDTVQFA [PRE1] | 3.01 ± 0.11 | 3.3 ± 0.15 | 2.95 ± 0.095 | 3.22 ± 0.12
DSSMTTVQENELLKSSL [AAR2] | 2.79 ± 0.12 | 3.32 ± 0.1 | 3.12 ± 0.095 | 2.94 ± 0.13
LRDESLTVDNLSIAIVG [PRE5] | 2.65 ± 0.075 | 2.26 ± 0.066 | 2.5 ± 0.06 | 2.93 ± 0.051
VEVDITLSPNVTDSSLL [GRR1] | 2.83 ± 0.074 | 2.43 ± 0.068 | 2.99 ± 0.053 | 2.82 ± 0.046
RAQRVAEKRDALLKEDA [RPL19A] | 3.2 ± 0.17 | 3.04 ± 0.13 | 2.89 ± 0.14 | 3.47 ± 0.091
REMALCRELHNKHLTTL [SSN3] | 1.62 ± 0.037 | 2.04 ± 0.041 | 1.87 ± 0.056 | 1.8 ± 0.038
SNDLDKFFQKKIHLYEK [YGL172W/NUP49] | 2.21 ± 0.057 | 2.22 ± 0.067 | 1.96 ± 0.061 | 2.32 ± 0.052
ANQSATSTPPPPPAPHN [SNF5] | 2.98 ± 0.041 | 3.03 ± 0.034 | 2.82 ± 0.034 | 3.1 ± 0.032
ISKKIIGMSLLMRTFLY [SIR3] | 1.79 ± 0.081 | 2.31 ± 0.065 | 1.99 ± 0.083 | 1.75 ± 0.077
YASKINRAEGPEELARI [RGR1] | 3.31 ± 0.12 | 3.26 ± 0.085 | 3.31 ± 0.067 | 3.24 ± 0.071
VQQQQQQQLRNQIQRQQ [SNF5] | 2.16 ± 0.071 | 2.5 ± 0.12 | 2.07 ± 0.2 | 2.06 ± 0.074
KLQLGQLYESGNPVNDA [COR1] | 3.03 ± 0.076 | 2.98 ± 0.091 | 3.17 ± 0.065 | 3.01 ± 0.077
TNLSGGEKTLSSLALVF [SMC4] | 3.34 ± 0.083 | 3.2 ± 0.097 | 3.04 ± 0.25 | 3.37 ± 0.054
GYDINYISKIGEKIDSN [SWI1] | 3.2 ± 0.11 | 2.98 ± 0.085 | 3.23 ± 0.084 | 2.91 ± 0.11
TKKSKLESTKAETDYVD [DSN1] | 2.58 ± 0.073 | 2.9 ± 0.069 | 2.73 ± 0.087 | 3.03 ± 0.059
HDIIEGINAGEIEIPEN [RPL12A] | 2.75 ± 0.071 | 2.52 ± 0.072 | 2.5 ± 0.077 | 2.4 ± 0.06
ENRFQDTLLLLPTDGGL [POP4] | 1.46 ± 0.096 | 2.12 ± 0.085 | 1.77 ± 0.11 | 2.44 ± 0.082

Sequence | protein stability index (doa10∆) | protein stability index (pdr5∆) | protein stability index (san1∆) | protein stability index (ubr1∆)
LQEKNSGNLPLNELSAK [RPN13] | 3.19 ± 0.072 | 3.2 ± 0.065 | 3.08 ± 0.038 | 3.17 ± 0.063
IQLSTVNRQSPLFFVDL [RGR1] | 1.59 ± 0.08 | 1.69 ± 0.094 | 1.9 ± 0.12 | 1.76 ± 0.099
NTEKDYKMVQEQLSKQR [SMC2] | 3.27 ± 0.065 | 3.17 ± 0.072 | 3.25 ± 0.045 | 3.23 ± 0.043
IIELENINAKMETRINI [YIL149C/MLP2] | 3.06 ± 0.091 | 2.63 ± 0.11 | 2.5 ± 0.069 | 2.62 ± 0.063
VIIKGFKTYRNETIIDN [SMC3] | 2.58 ± 0.22 | 2.63 ± 0.27 | 2.94 ± 0.17 | –
MKWSAIPFQTLYRSIES [YJL039C/NUP192] | 1.53 ± 0.046 | 1.91 ± 0.058 | 1.7 ± 0.11 | 1.91 ± 0.031
LATYGLTIDDLGVASFH [FAS2] | 2.97 ± 0.055 | 3.11 ± 0.053 | 2.92 ± 0.044 | 3.11 ± 0.036
VNYRHFKAMEDVIAWKN [ITC1] | 2.98 ± 0.15 | 3.36 ± 0.17 | 3.27 ± 0.077 | 3.37 ± 0.065
WNLNQFQIEADFIGHNS [ASC1] | 2.79 ± 0.079 | 2.7 ± 0.058 | 2.95 ± 0.076 | 2.52 ± 0.059
SLLERHIPRLIPKQLLD [YJL039C/NUP192] | 2.11 ± 0.096 | 1.38 ± 0.071 | 1.23 ± 0.095 | 1.45 ± 0.076
LRKSRETVKLPRVSNQS [RRI2] | – | 3.42 ± 0.22 | – | –
MENIKKSIDSKTPEEVE [ISW2] | 2.92 ± 0.17 | 3.09 ± 0.23 | 3.13 ± 0.089 | 3.23 ± 0.11
AVSAASVVSMSNDVLKP [SIR2] | 2.5 ± 0.048 | 3.11 ± 0.064 | 2.82 ± 0.063 | 2.75 ± 0.04
IAKIKKVCECVCMHCGK [RPO21] | 1.92 ± 0.057 | 2.28 ± 0.067 | 2.7 ± 0.091 | 2.43 ± 0.046
AGCKIDNVDDIGEFNVS [YDL088C/ASM4] | 3.25 ± 0.11 | 2.8 ± 0.097 | 2.94 ± 0.096 | 3.06 ± 0.14
SSKKSKRLDKVGKKKGG [LRP1] | 2 ± 0.08 | 1.17 ± 0.068 | 1.91 ± 0.12 | 1.43 ± 0.057
LQPIKGESARRFQKCFP [RPC40] | – | 3 ± 0.25 | – | –
YLCFILSTRAGGLGLNL [SNF2] | 2.32 ± 0.08 | 2.04 ± 0.095 | 2.19 ± 0.12 | 2.6 ± 0.11
SSNISPEQVYSLLLTNV [ARP7] | 2.27 ± 0.035 | 2.48 ± 0.036 | 2.43 ± 0.04 | 2.46 ± 0.033
SNNELVRTNTLTKAAIV [RPS8A] | 2.842 ± 0.022 | 3.046 ± 0.022 | 2.724 ± 0.022 | 3.021 ± 0.018
ILIESRIHRLARYYRTV [RPS13] | 2.45 ± 0.11 | 2.06 ± 0.06 | 2.74 ± 0.087 | 2.1 ± 0.051
LPTRYTLDVEAFKSVVS [RPL27A] | 1.33 ± 0.031 | 1.55 ± 0.039 | 1.62 ± 0.066 | 1.34 ± 0.031
KGRSYAYFMVGAMGLLS [RIP1] | 2.39 ± 0.11 | 2.82 ± 0.12 | 3.16 ± 0.2 | 2.98 ± 0.074
IGIVEIAHENEQKWLIY [SRB8] | 1.69 ± 0.067 | 1.83 ± 0.051 | 1.58 ± 0.086 | 1.54 ± 0.034
EINPFLLGTMAGGAADC [PRE2] | 2.88 ± 0.18 | 3.22 ± 0.12 | 2.75 ± 0.15 | 2.61 ± 0.15
QTLLANSDHAKFTIEPG [SNF2] | 2.35 ± 0.059 | 2.33 ± 0.065 | 2.41 ± 0.1 | 2.37 ± 0.063
